The RNAGym collection of RNA variant scans (doi:10.1093/nar/gkz1192)

B1: CPEB3 Ribozyme (parent)
chain: UAACAGGGGGCCACAGCAGAAGCGUUCACGUCGCAGCCCCUGUCAGAUUCUGGUGAAUCUGCGAAUUCUGCUGUAUAUCUC

Variants of: B1
Assay: self-cleavage, relative activity (ratio to wild type); higher = more cleavage; in vitro, sequencing
In short: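 Relative activity compares each variant's cleaved/total read fraction with that of the unmutated ribozyme. To get these fractions, barcoded CPEB3 ribozyme libraries from rounds of error-prone PCR were transcribed with T7 RNA polymerase for 5 hours at 37°C and then given 15 min of DNase I treatment before EDTA was added. The RNAs were reverse transcribed with template switching and sequenced on Illumina, and DNA sequencing linked barcodes to variants. A minimum of 5 reads applied, and three batches were averaged.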

In order of falling self-cleavage:
1. UAACAGGGGGCCACAGCAGAAGCGUCCACGUCGCAGCCUCUGUCAGAUUCUGGUGAAUCUGCGAAUUCUGCUGUAUAUCUC [U26C C39U]  0.61
2. UAACAGGGGGCCACAGCAGAAGCGUCCACGUCGCAGCCCCUGUCAGAUUCUGGUGAAUCUGCGAAUUCUGCUGUAUAUAUC [U26C C79A]  0.61
3. UAACAGGGGGCCACAGCAGAAGCGUCCACGUCGCAGCCCCUGUCAGAUUCUGGUGAAUCUGCGAAUUCUGCUGUAUAUGUC [U26C C79G]  0.59
4. UAACAGGGGGCCACAGCAGAAGCGUCCACGUCGCAGCCCCUGUCAGGUUCUGGUGAAUCUGCGAAUUCUGCUGUAUAUCUC [U26C A47G]  0.48
5. UAACAGGGGGCCACAGCAGAAGCGUCCACGUCGCAGCUCCUGUCAGAUUCUGGUGAAUCUGCGAAUUCUGCUGUAUAUCUC [U26C C38U]  0.4
6. UAACAGGGGGCCACAGCAGAAGCGUCCACGUCGCAGCCCCUGUCAGAUUCUGGUGGAUCUGCGAAUUCUGCUGUAUAUCUC [U26C A56G]  0.38
7. UAACAGGGGGCCACAGCAGAAGCGUCCACGUCGCAGCCCCUGUCAGAUUCUGGUGAAUCUGAGAAUUCUGCUGUAUAUCUC [U26C C62A]  0.38
8. UAACAGGGGGCCACAGCAGAAGCGUCCACGUCGCAGCCCCUGUCAGUUUCUGGUGAAUCUGCGAAUUCUGCUGUAUAUCUC [U26C A47U]  0.36
9. UAACAGGGGGCCACAGCAGAAGCGUCCACGUCGCAGCCCCUGUCCGAUUCUGGUGAAUCUGCGAAUUCUGCUGUAUAUCUC [U26C A45C]  0.36
10. UAACAGGGGGCCACAGCAGAAGCGUCCACGUCGCAGCCCCUGUCAGAUUCUGGUGAAUCUGCGGAUUCUGCUGUAUAUCUC [U26C A64G]  0.36
11. UAACAGGGGGCCACAGCAGAAGCGUCCACGUCGCAGCCCUUGUCAGAUUCUGGUGAAUCUGCGAAUUCUGCUGUAUAUCUC [U26C C40U]  0.34
12. UAACAGGGGGCCACAGCAGAAGCGUCCACGUCGCAGCCACUGUCAGAUUCUGGUGAAUCUGCGAAUUCUGCUGUAUAUCUC [U26C C39A]  0.33
13. UAACAGGGGGCCACAGCAGAAGCGUCCACGUCGCAGCCCCUGUCGGAUUCUGGUGAAUCUGCGAAUUCUGCUGUAUAUCUC [U26C A45G]  0.32
14. UAACAGGGGGCCACAGCAGAAGCGUCCACGUCGCAGCCCCUGUCAGAUUCUGGUGCAUCUGCGAAUUCUGCUGUAUAUCUC [U26C A56C]  0.31
15. UAACAGGGGGCCACAGCAGAAGCGUCCGCGUCGCAGCCCCUGUCAGAUUCUGGUGAAUCUGCGAAUUCUGCUGUAUAUCUC [U26C A28G]  0.31
16. UAACAGGGGGCCACAGCAGAAGCGUCCACGUCGCAGCCCCUGUCAGAUUCUGGUGAAUCUGCGCAUUCUGCUGUAUAUCUC [U26C A64C]  0.31
17. UAACAGGGGGCCACAGCAGAAGCGUCCCCGUCGCAGCCCCUGUCAGAUUCUGGUGAAUCUGCGAAUUCUGCUGUAUAUCUC [U26C A28C]  0.29
18. UAACAGGGGGCCACAGCAGAAGCGUCCUCGUCGCAGCCCCUGUCAGAUUCUGGUGAAUCUGCGAAUUCUGCUGUAUAUCUC [U26C A28U]  0.29
19. UAACAGGGGGCCACAGCAGAAGCGUCCACGUCGCAGCCCCUGUCAGAUUCUGGUGUAUCUGCGAAUUCUGCUGUAUAUCUC [U26C A56U]  0.28
20. UAACAGGGGGCCACAGCAGAAGCGUCCACAUCGCAGCCCCUGUCAGAUUCUGGUGAAUCUGCGAAUUCUGCUGUAUAUCUC [U26C G30A]  0.27
21. UAACAGGGGGCCACAGCAGAAGCGUCUACGUCGCAGCCCCUGUCAGAUUCUGGUGAAUCUGCGAAUUCUGCUGUAUAUCUC [U26C C27U]  0.27
22. UAACAGGGGGCCACAGCAGAAGCGUCCACGUCGCAGCCCCUGUUAGAUUCUGGUGAAUCUGCGAAUUCUGCUGUAUAUCUC [U26C C44U]  0.26
23. UAACAGGGGGCCACAGCAGAAGCGUCCACGUCGCAGCCCCUGUCUGAUUCUGGUGAAUCUGCGAAUUCUGCUGUAUAUCUC [U26C A45U]  0.26
24. UAACAGGGGGCCACAGCAGAAGCGUCCACGUCGCAGCCCAUGUCAGAUUCUGGUGAAUCUGCGAAUUCUGCUGUAUAUCUC [U26C C40A]  0.26
25. UAACAGGGGGCCACAGCAGAAGCGUCCACGUCGCAGCCCCUGUCAGAUUCUGGUGAAUCUGCGUAUUCUGCUGUAUAUCUC [U26C A64U]  0.26
26. UAACAGGGGGCCACAGCAGAAGCGUCCACGUCGCAGCCCCUGUCAGAUUCUGGUGAAUCUGCGAAUUCUGUUGUAUAUCUC [U26C C71U]  0.24
27. UAACAGGGGGCCACAGCAGAAGCGUCCACGUCGCAGCACCUGUCAGAUUCUGGUGAAUCUGCGAAUUCUGCUGUAUAUCUC [U26C C38A]  0.19
28. UAACAGGGGGCCACAGCAGAAGCGUCCACGUCGCAGCCCCUGUCAGAUUCUGGUGAAUCUGGGAAUUCUGCUGUAUAUCUC [U26C C62G]  0.17
29. UAACAGGGGGCCACAGCAGAAGCGUCCACUUCGCAGCCCCUGUCAGAUUCUGGUGAAUCUGCGAAUUCUGCUGUAUAUCUC [U26C G30U]  0.16
30. UAACAGGGGGCCACAGCAGAAGCGUCCACGUCGCAGCCCCUGUCAGAUUCUGGUGAAUCUGUGAAUUCUGCUGUAUAUCUC [U26C C62U]  0.16
31. UAACAGGGGGCCACAGCAGAAGCGUCCACGUCGCAGCCCCUGUCAGAUUCUGGUGAAUCUGCGAAUUCUGAUGUAUAUCUC [U26C C71A]  0.1
32. UAACAGGGGGCCACAGCAGAAGCGUCCACGUCGCAGCCCCUGUAAGAUUCUGGUGAAUCUGCGAAUUCUGCUGUAUAUCUC [U26C C44A]  0.09
33. UAACAGGGGGCCACAGCAGAAGCGUCCACGUCGCAGCGCCUGUCAGAUUCUGGUGAAUCUGCGAAUUCUGCUGUAUAUCUC [U26C C38G]  0.09
34. UAACAGGGGGCCACAGCAGAAGCGUCCACGUCGCAGCCCCUGUCAGCUUCUGGUGAAUCUGCGAAUUCUGCUGUAUAUCUC [U26C A47C]  0.08
